# Experimental data reported in US20220177587A1, “METHODS AND USES OF VARIANT CD80 FUSION PROTEINS AND RELATED CONSTRUCTS” (Alpine Immune Sciences, Inc., priority 2018, published 2022).
# Tests used:
# human PD-L1 (human) [1] = target: human PD-L1 (human) (UniProt Q9NZQ7); assay: flow cytometry, transfected Expi293F cells
# human CTLA-4 (human) [2] = target: human CTLA-4 (human) (UniProt P16410); assay: flow cytometry, transfected Expi293F cells
# CD28 (human) [3] = target: CD28 (human) (UniProt P10747); assay: flow cytometry, transfected Expi293F cells
# human PD-L1 (human) [4] = target: human PD-L1 (human) (UniProt Q9NZQ7); assay: flow cytometry; PD-L1 MFI over CD28 MFI of the same protein
# CD28 (human) [5] = target: CD28 (human) (UniProt P10747); assay: flow cytometry, Jurkat cells (CD28); vs WT CD80 ECD-Fc (Abcam)
# human CTLA-4 (human) [6] = target: human CTLA-4 (human) (UniProt P16410); assay: flow cytometry, CHO/huCTLA-4 cells; vs WT CD80 ECD-Fc (Abcam)
# human CTLA-4 (human) [7] = target: human CTLA-4 (human) (UniProt P16410); assay: flow cytometry, CHO cells expressing huCTLA-4
# CD28 (human) [8] = target: CD28 (human) (UniProt P10747); assay: flow cytometry, Jurkat/IL2 reporter cells (CD28)
# human PD-L1 (human) [9] = target: human PD-L1 (human) (UniProt Q9NZQ7); assay: flow cytometry, CHO/huPD-L1 cells; vs WT CD80 ECD-Fc (Abcam)
# human PD-L1 (human) [10] = target: human PD-L1 (human) (UniProt Q9NZQ7); assay: flow cytometry, CHO cells expressing huPD-L1
# human PD-L1 (human) [11] = target: human PD-L1 (human) (UniProt Q9NZQ7); assay: flow cytometry, CHO cells stably expressing PD-L1
# human CTLA-4 (human) [12] = target: human CTLA-4 (human) (UniProt P16410); assay: flow cytometry, CHO cells stably expressing CTLA4
# CD28 (human) [13] = target: CD28 (human) (UniProt P10747); assay: flow cytometry, Jurkat cells (CD28)
# human PD-L1 (human) [14] = target: human PD-L1 (human) (UniProt Q9NZQ7); assay: flow cytometry, MFI on PD-L1 cells over MFI on CD28 cells
# human CTLA-4 (human), sequence (P16410 36-223): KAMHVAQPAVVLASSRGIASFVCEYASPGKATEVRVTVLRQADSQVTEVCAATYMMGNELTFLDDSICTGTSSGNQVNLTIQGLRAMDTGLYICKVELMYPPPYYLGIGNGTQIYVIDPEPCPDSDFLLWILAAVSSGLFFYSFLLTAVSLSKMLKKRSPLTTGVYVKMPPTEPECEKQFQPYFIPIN
# human PD-L1 (human), sequence (Q9NZQ7 19-290): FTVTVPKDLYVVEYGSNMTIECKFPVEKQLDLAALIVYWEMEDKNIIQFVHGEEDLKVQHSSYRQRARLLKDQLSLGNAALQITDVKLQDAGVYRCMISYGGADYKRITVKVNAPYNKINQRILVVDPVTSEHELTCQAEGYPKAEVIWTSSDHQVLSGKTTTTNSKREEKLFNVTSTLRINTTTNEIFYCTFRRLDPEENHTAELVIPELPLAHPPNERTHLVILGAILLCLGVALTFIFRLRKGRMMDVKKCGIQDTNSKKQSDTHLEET
Binder,Fold change to WT CD80 (human PD-L1 (human) [11]) [fold],MFI at 33.3 nM (human PD-L1 (human) [11]) [MFI],Fold change to WT CD80 (human CTLA-4 (human) [12]) [fold],MFI at 33.3 nM (human CTLA-4 (human) [12]) [MFI],Fold change to WT CD80 (CD28 (human) [13]) [fold],MFI at 33.3 nM (CD28 (human) [13]) [MFI],Ratio of PDL1:CD28 (human PD-L1 (human) [14]),other results
CD80 R29D/Y31L/Q33H/K36G/M38I/T41A/M43R/M47T/E81V/L85R/K89N/A91T/F92P/K93V/R94L/I118V/T120S/T130A/K169E/M174T ECD-Fc (Fc fusion) VIHVTKEVKEVATLSCGHNVSVEELAQTDILWHKEGKIVLAMRSGDTNIWPEYKNRTIFDITNNLSIVILALRPSDEGTYVCVVRKYENDTPVLEHLAEVTLSVKADFPTPSISDFEVPSSNIRRIICSASGGFPEPHLSWLENGEELNAINTTVSQDPETELYAVSSELDFNTTTNHSFMCLIKYGHLRVNQTFNWNTTKQEHFPDN,,,,,,,,MFI (human PD-L1 (human) [1]): 158000; parental ratio (human PD-L1 (human) [1]): 0.06; MFI (human CTLA-4 (human) [2]): 2490; parental ratio (human CTLA-4 (human) [2]): 0.01; MFI (CD28 (human) [3]): 2740; parental ratio (CD28 (human) [3]): 0.06
CD80 R29D/Y31L/Q33H/K36G/M38I/T41A/M43R/M47T/L70Q/E81V/K89N/A91T/F92P/K93V/R94L/I118V/T120S/I127T/T130A ECD-Fc (Fc fusion) VIHVTKEVKEVATLSCGHNVSVEELAQTDILWHKEGKIVLAMRSGDTNIWPEYKNRTIFDITNNLSIVIQALRPSDEGTYVCVVLKYENDTPVLEHLAEVTLSVKADFPTPSISDFEVPSSNIRRITCSASGGFPEPHLSWLENGEELNAINTTVSQDPETELYAVSSKLDFNMTTNHSFMCLIKYGHLRVNQTFNWNTTKQEHFPDN,,,,,,,,MFI (human PD-L1 (human) [1]): 14200; parental ratio (human PD-L1 (human) [1]): 0.05; MFI (human CTLA-4 (human) [2]): 2120; parental ratio (human CTLA-4 (human) [2]): 0.01; MFI (CD28 (human) [3]): 2110; parental ratio (CD28 (human) [3]): 0.05
CD80 C16S/H18L/R29D/Y31L/Q33H/K36G/M38I/T41A/M43R/M47T/E81V/L85R/K89N/A91T/F92P/K93V/R94L/T110A/I118V/H188D ECD-Fc (Fc fusion) VIHVTKEVKEVATLSSGLNVSVEELAQTDILWHKEGKIVLAMRSGDTNIWPEYKNRTIFDITNNLSIVILALRPSDEGTYVCVVRKYENDTPVLEHLAEVTLSVKADFPAPSISDFEVPTSNIRRIICSTSGGFPEPHLSWLENGEELNAINTTVSQDPETELYAVSSKLDFNMTTNHSFMCLIKYGDLRVNQTFNWNTTKQEHFPDN,,,,,,,,MFI (human PD-L1 (human) [1]): 4500; parental ratio (human PD-L1 (human) [1]): 0.03; MFI (human CTLA-4 (human) [2]): 1800; parental ratio (human CTLA-4 (human) [2]): 0.01; MFI (CD28 (human) [3]): 1210; parental ratio (CD28 (human) [3]): 0.03
CD80 H18L/R29D/Y31L/Q33H/K36G/M38I/T41A/M43R/M47T/E81V/L85R/K89N/A91T/F92P/K93V/R94L/F116S/T130A/H188D ECD-Fc (Fc fusion) VIHVTKEVKEVATLSCGLNVSVEELAQTDILWHKEGKIVLAMRSGDTNIWPEYKNRTIFDITNNLSIVILALRPSDEGTYVCVVRKYENDTPVLEHLAEVTLSVKADFPTPSISDSEIPTSNIRRIICSASGGFPEPHLSWLENGEELNAINTTVSQDPETELYAVSSKLDFNMTTNHSFMCLIKYGDLRVNQTFNWNTTKQEHFPDN,,,,,,,,MFI (human PD-L1 (human) [1]): 110000; parental ratio (human PD-L1 (human) [1]): 0.03; MFI (human CTLA-4 (human) [2]): 2090; parental ratio (human CTLA-4 (human) [2]): 0.01; MFI (CD28 (human) [3]): 1240; parental ratio (CD28 (human) [3]): 0.03
CD80 R29D/Y31L/Q33H/K36G/M38I/T41A/M43R/M47T/L70Q/D76G/A91G/S103L/I118V/T120S/I127T/T130A ECD-Fc (Fc fusion) VIHVTKEVKEVATLSCGHNVSVEELAQTDILWHKEGKIVLAMRSGDTNIWPEYKNRTIFDITNNLSIVIQALRPSGEGTYECVVLKYEKDGFKREHLAEVTLLVKADFPTPSISDFEVPSSNIRRITCSASGGFPEPHLSWLENGEELNAINTTVSQDPETELYAVSSKLDFNMTTNHSFMCLIKYGHLRVNQTFNWNTTKQEHFPDN,,,,,,,,MFI (human PD-L1 (human) [1]): 3510; parental ratio (human PD-L1 (human) [1]): 0.04; MFI (human CTLA-4 (human) [2]): 1730; parental ratio (human CTLA-4 (human) [2]): 0.01; MFI (CD28 (human) [3]): 1910; parental ratio (CD28 (human) [3]): 0.04
variant CD80 IgV-Fc M47V/N48K/K89N (Fc fusion) VIHVTKEVKEVATLSCGHNVSVEELAQTRIYWQKEKKMVLTMMSGDVKIWPEYKNRTIFDITNNLSIVILALRPSDEGTYECVVLKYENDAFKREHLAEVTLSVKAD,,,,,,,,Ratio of PDL1:CD28 (human PD-L1 (human) [4]): 6.5; Fold change to WT CD80 (CD28 (human) [5]): 0.5 fold; Fold change to WT CD80 (human CTLA-4 (human) [6]): 1 fold; MFI at 33.3 nM (human CTLA-4 (human) [7]): 42100 MFI; MFI at 33.3 nM (CD28 (human) [8]): 366 MFI; Fold change to WT CD80 (human PD-L1 (human) [9]): 18.5 fold; MFI at 33.3 nM (human PD-L1 (human) [10]): 2370 MFI
variant CD80 IgV-Fc A26E/E35D/M47L/D90G (Fc fusion) VIHVTKEVKEVATLSCGHNVSVEELEQTRIYWQKDKKMVLTMMSGDLNIWPEYKNRTIFDITNNLSIVILALRPSDEGTYECVVLKYEKGAFKREHLAEVTLSVKAD,220,9580,13.4,18200,35.3,1550,6.2,
variant CD80 IgV-Fc H18Y/A26E/M47L/D90G (Fc fusion) VIHVTKEVKEVATLSCGYNVSVEELEQTRIYWQKEKKMVLTMMSGDLNIWPEYKNRTIFDITNNLSIVILALRPSDEGTYECVVLKYEKGAFKREHLAEVTLSVKAD,205,8930,17.3,23500,65.1,2860,3.1,
variant CD80 IgV-Fc H18Y/A26E/M47L/A71G (Fc fusion) VIHVTKEVKEVATLSCGYNVSVEELEQTRIYWQKEKKMVLTMMSGDLNIWPEYKNRTIFDITNNLSIVILGLRPSDEGTYECVVLKYEKDAFKREHLAEVTLSVKAD,357,15600,16.3,22100,13.9,611,25.5,
variant CD80 IgV-Fc H18Y/M47L/V68M/D90G (Fc fusion) VIHVTKEVKEVATLSCGYNVSVEELAQTRIYWQKEKKMVLTMMSGDLNIWPEYKNRTIFDITNNLSIMILALRPSDEGTYECVVLKYEKGAFKREHLAEVTLSVKAD,499,21800,14,19000,86.4,3800,5.7,
variant CD80 IgV-Fc A26E/E35D/V68M/D90G (Fc fusion) VIHVTKEVKEVATLSCGHNVSVEELEQTRIYWQKDKKMVLTMMSGDMNIWPEYKNRTIFDITNNLSIMILALRPSDEGTYECVVLKYEKGAFKREHLAEVTLSVKAD,160,6990,10.2,13900,38.3,1680,4.2,
variant CD80 IgV-Fc H18Y/A26E/V68M/D90G (Fc fusion) VIHVTKEVKEVATLSCGYNVSVEELEQTRIYWQKEKKMVLTMMSGDMNIWPEYKNRTIFDITNNLSIMILALRPSDEGTYECVVLKYEKGAFKREHLAEVTLSVKAD,295,12800,19,25800,54.5,2390,5.4,
variant CD80 IgV-Fc A26E/V68M/A71G/D90G (Fc fusion) VIHVTKEVKEVATLSCGHNVSVEELEQTRIYWQKEKKMVLTMMSGDMNIWPEYKNRTIFDITNNLSIMILGLRPSDEGTYECVVLKYEKGAFKREHLAEVTLSVKAD,73.3,3200,6.4,8670,27.2,1190,2.7,
variant CD80 IgV-Fc H18Y/V68M/A71G/D90G (Fc fusion) VIHVTKEVKEVATLSCGYNVSVEELAQTRIYWQKEKKMVLTMMSGDMNIWPEYKNRTIFDITNNLSIMILGLRPSDEGTYECVVLKYEKGAFKREHLAEVTLSVKAD,703,30700,16.4,22300,77.8,3410,9,
variant CD80 IgV-Fc M47L/V68M/A71G/D90G (Fc fusion) VIHVTKEVKEVATLSCGHNVSVEELAQTRIYWQKEKKMVLTMMSGDLNIWPEYKNRTIFDITNNLSIMILGLRPSDEGTYECVVLKYEKGAFKREHLAEVTLSVKAD,714,31100,12.8,17400,82.2,3610,8.6,
variant CD80 IgV-Fc H18Y/A26E/V68M/A71G (Fc fusion) VIHVTKEVKEVATLSCGYNVSVEELEQTRIYWQKEKKMVLTMMSGDMNIWPEYKNRTIFDITNNLSIMILGLRPSDEGTYECVVLKYEKDAFKREHLAEVTLSVKAD,158,6870,8.3,11300,2.3,99.4,69.1,
variant CD80 IgV-Fc A26E/M47L/A71G/D90G (Fc fusion) VIHVTKEVKEVATLSCGHNVSVEELEQTRIYWQKEKKMVLTMMSGDLNIWPEYKNRTIFDITNNLSIVILGLRPSDEGTYECVVLKYEKGAFKREHLAEVTLSVKAD,303,13200,16.2,22000,44.5,1960,6.8,
variant CD80 IgV-Fc E35D/M47L/A71G/D90G (Fc fusion) VIHVTKEVKEVATLSCGHNVSVEELAQTRIYWQKDKKMVLTMMSGDLNIWPEYKNRTIFDITNNLSIVILGLRPSDEGTYECVVLKYEKGAFKREHLAEVTLSVKAD,277,12100,15.4,20900,30.3,1330,9.1,
